Test results from patent CN113061185A (EXCYTE BEIJING PHARMACEUTICAL TECH DEVELOPMENT CO LTD, dated 2021).
Substitutions are numbered along the chain they refer to.

T1: BCMA-Fc fusion protein (Acrobiosystems, catalogue no. BC7-H5254) (human, UniProt Q02223 1-54)
T1 construct: Bought fusion protein; Used as coated antigen in ELISA; also called BCMA抗原; BCMA-Fc抗原; not shown: human Fc
T1 sequence (looked up): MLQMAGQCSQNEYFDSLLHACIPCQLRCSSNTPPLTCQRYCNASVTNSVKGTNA

T2: BCMA on the surface of BCMA-positive cell lines H929 (NCI-H929) and RPMI8226 (human, UniProt Q02223 1-184)
T2 construct: whole, on cells; Endogenous BCMA of the cell lines; also called 细胞膜表面的BCMA抗原
T2 sequence (looked up): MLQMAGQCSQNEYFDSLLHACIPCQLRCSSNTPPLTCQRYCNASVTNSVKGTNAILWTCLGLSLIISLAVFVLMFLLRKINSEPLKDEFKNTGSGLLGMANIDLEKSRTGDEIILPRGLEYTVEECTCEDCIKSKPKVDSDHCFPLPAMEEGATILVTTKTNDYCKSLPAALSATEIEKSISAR

B1: B10 parental antibody as expressed and purified in Example 3 (antibody, V domains shown)
VH: QVQLQQSGAEVKKPGSSVKVSCKASGGTFSSYAISWVRQAPGQGLEWMGGIIPIFGTANYAQKFQGRVTITADESTSTAYMELSSLRSEDTAVYYCARGWYFDLWGRGTLVTVSS
VL: LPVLTQPPSASGTPGQRVTISCSGSSSNIGGYSVNWYQQFPGTAPKLLIYRNNQRPSGVPDRFSGSKSGASASLAISGLQSEDEADYYCAAWDDSLIGYVFGTGTQLTVL
notes: also called 亲本B10; B10亲本抗体
B2: B10.3 (affinity-matured mutant of B10) (scFv)
scFv: QVQLQQSGAEVKKPGSSVKVSCKASGGTFSKSAIQWVRQAPGQGLEWMGGVIPIFGTANYAQKFQGRVTITADESTSTAYMELSSLRSEDTAVYYCARGWYLDLWGRGTLVTVSSGGSSRSSSSGGGGSGGGGLPVLTQPPSASGTPGQRVTISCSGSSNNIGGYSVNWYQQFPGTAPKLLIYRNNQRPSGVPDRFSGSKSGASASLAISGLQSEDEADYYCAAWDDSVIGWLFGTGTQLTVL
notes: also called 突变体B10.3
B3: B10.5 (affinity-matured mutant of B10) (scFv)
scFv: B2 scFv with Q35H, N160S, E217V, V229L, W232Y, L233V
notes: also called 突变体B10.5
B4: B10.9 (affinity-matured mutant of B10) (scFv)
scFv: B2 scFv with V229E
notes: also called 突变体B10.9
B5: B10.4 (affinity-matured mutant of B10) (scFv)
scFv: B2 scFv with Q35M
notes: also called 突变体B10.4

The binders below were run against T1, BCMA-Fc fusion protein (Acrobiosystems, …) (assay: ELISA, intrinsic affinity).

Kd	Binder
~10000 pM	B1

These binders were tested against T2, BCMA on the surface of BCMA-positive … (assay: flow cytometry on H929 cells).

细胞结合百分率 (percent of cells bound)	Binder
75.3%	B1
98%	B2
97.2%	B3
91.6%	B4
97.9%	B5

The binders below were run against T2, BCMA on the surface of BCMA-positive … (assay: flow cytometry on RPMI8226 cells).

细胞结合百分率 (percent of cells bound)	Binder
5.54%	B1
54.9%	B2
58.2%	B3
42.9%	B4
57.5%	B5

The binders below were run against T1, BCMA-Fc fusion protein (Acrobiosystems, …) (assay: ELISA on BCMA; EC50 relative to J6).

Fold of J6 (EC50 ratio)	Binder
1.29 fold	B2
1.35 fold	B3
1.43 fold	B4
1.55 fold	B5

What follows are binders tested against T2, BCMA on the surface of BCMA-positive … (assay: flow cytometry on RPMI8226 cells; EC50 relative to J6).

fold improvement of EC50 over J6	Binder
~1.5 fold	B1

The binders below were run against T2, BCMA on the surface of BCMA-positive … (assay: flow cytometry, antibody titration on RPMI8226 cells).

EC50	Binder
1.57 µg/mL	B1
0.0282 µg/mL	B2
0.0406 µg/mL	B3
0.0451 µg/mL	B4
0.0343 µg/mL	B5

Molecular target: T2, BCMA on the surface of BCMA-positive …
Assay: flow cytometry on RPMI8226 cells; EC50 relative to J6
Remark: another data set of the same source

相对于J6提高倍数 (fold improvement of EC50 over J6)	Binder
1.74 fold	B1
97.1 fold	B2
67.5 fold	B3
60.7 fold	B4
79.9 fold	B5

The binders below were run against T2, BCMA on the surface of BCMA-positive … (assay: flow cytometry (FACS), apparent affinity on BCMA-bearing cells).

Kd	Binder
300 pM	B1

What follows are binders tested against T1, BCMA-Fc fusion protein (Acrobiosystems, …) (assay: ELISA; affinity estimated from the EC50 ratio to J6 (J6 taken as 0.2 nM)).

Kd	Binder
260 pM	B2
270 pM	B3
290 pM	B4
310 pM	B5
